For assay [1], the target named is Carbonic anhydrase II (bCAII), from bovine erythrocytes (bovine) (UniProt P00921). As to the kind of experiment: SPR Biacore T100; bCAII immobilised on CM5.
For assay [2] the target is unchanged. As to the kind of experiment: SPR KD of the biligand against fluorescence polarization KD of the anchor ligand.
For assay [3] the target is unchanged. The experiment in a line: SPR Biacore T100; bCAII immobilised on CM5, biligand as analyte 2 nM-5 µM, 1:1 fit.
The target is the same in assay [4]. As to the kind of experiment: SPR KD of the biligands against fluorescence polarization KD of the anchor ligand.
For assay [5] the target is unchanged. As to the kind of experiment: dot blot; antigen spotted on nitrocellulose, biotinylated biligand anchor in 0.1% serum, streptavidin-HRP.
Assay [6] concerns the target human carbonic anhydrase II (hCAII) (human) (UniProt P00918). Described as above.
The target in assay [7] is Carbonic anhydrase II (bCAII), from bovine erythrocytes (bovine) (UniProt P00921). As to the kind of experiment: SPR Biacore T100; bCAII immobilised on CM5, branched biligand as analyte 0-1656 nM. (Surface plasmon resonance follows binding to a sensor surface in real time, without labels.)
For assay [8] the target is unchanged. The experiment in a line: fluorescence polarization; 6 µM FITC-peptide titrated with bCAII 0.2-800 µM in PBS + 3% DMSO. A general note: In fluorescence polarisation assays a small probe gives low polarisation when free and higher when bound to something large.
For assay [9] the target is unchanged. As to the kind of experiment: SPR.
Assay [10] shares this target. As to the kind of experiment: SPR KD of the triligand against SPR KD of the biligand.
In assay [11] the target is human carbonic anhydrase II (hCAII) (human) (UniProt P00918). Described as above.
For assay [12], the target named is Carbonic anhydrase II (bCAII), from bovine erythrocytes (bovine) (UniProt P00921). As to the kind of experiment: SPR Biacore T100; bCAII immobilised on CM5, triligand as analyte 0.1-162 nM, 1:1 fit.
Assay [13] has as its target human carbonic anhydrase II (hCAII) (human) (UniProt P00918). The experiment in a line: SPR Biacore T100; hCAII immobilised on CM5, triligand as analyte 0.1-162 nM, 1:1 fit.

Here are results for six substances from patent US20100009896A1.

Sequence of Carbonic anhydrase II (bCAII), from bovine erythrocytes (bovine) (P00921 2-260 limits assumed): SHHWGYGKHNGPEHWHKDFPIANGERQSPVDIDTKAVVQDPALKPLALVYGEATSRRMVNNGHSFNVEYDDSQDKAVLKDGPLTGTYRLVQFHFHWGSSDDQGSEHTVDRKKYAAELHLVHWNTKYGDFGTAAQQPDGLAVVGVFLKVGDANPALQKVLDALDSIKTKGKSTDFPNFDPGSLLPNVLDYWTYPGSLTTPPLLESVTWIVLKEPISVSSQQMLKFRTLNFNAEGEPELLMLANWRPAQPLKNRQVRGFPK

The Kd is the concentration at which binding is half-saturated. Consider biligand kwlwGl-Tz1-kfwlkl (peptide), for which the Kd in [1] amounted to 1 µM; in assay [3], 3 µM. This substance returned a fold improvement of dissociation constant over anchor ligand lklwfk-(D-Pra) in [2] of 150 fold.

Consider biligand lklwfk-Tz1-kiwiG (peptide), for which the Kd was 1 µM in assay [1] and 11 µM in [3]. Moreover, the fold affinity enhancement over anchor ligand in assay [4] is 150 fold.

With “biotinylated biligand anchor Biotin-(EG)5-(D-Pra)-kwlwGl-Tz1-kfwlkl (FIG. 14) (peptide)”, the fold reduction of dot blot sensitivity against the triligand in [5] and in assay [6] was 10 fold throughout.

As to “branched biligand capture agent vkw(Tz1)fw-kfwlkl (peptide)”, the Kd in assay [7] is 0.5 µM.

As to “fluoresceinated anchor ligand lklwfk-(D-Pra) (peptide)”, in assay [8], the Kd worked out at 500 µM.

As for “triligand rfviln-Tz2-kwlwGl-Tz1-kfwlkl (peptide)”, the Kd in assay [9] was found to be 0.06 µM; in [12] it was 0.064 µM; in [13] it was 0.045 µM. For the same substance, the fold affinity enhancement over biligand in [10] and in [11] was 50 fold each time.
